This is an account of results in patent US20230272029A1, “CO-AGONISTS AT GLP-1 AND GIP RECEPTORS SUITABLE FOR ORAL DELIVERY” (Novo Nordisk A/S, priority 2020, published 2023).

Starred links: 1 amine or outer side, 2 acyl side, 3 side chain; linkers in the order of their positions; H or OH if unused. Non-standard residues stand in square brackets, D forms with d. Groups on a side chain read outwards from the residue. No end group written: not given here. *: point of attachment. C18 diacid = O=C(O)CCCCCCCCCCCCCCCCC(=O)*; γGlu = O=C(O)[C@H](CCC(=O)[*:2])N[*:1]; εLys = N[C@@H](CCCCN[*:1])C(=O)[*:2]; Aib = CC(C)(N)C(=O)O

The target of one assay is human GLP-1 receptor (human, UniProt P43220 24-463). Put plainly: cell-based or functional assay.
The target in another assay is T1, human GIP receptor (human, UniProt P48546 22-466).
T1 sequence (looked up): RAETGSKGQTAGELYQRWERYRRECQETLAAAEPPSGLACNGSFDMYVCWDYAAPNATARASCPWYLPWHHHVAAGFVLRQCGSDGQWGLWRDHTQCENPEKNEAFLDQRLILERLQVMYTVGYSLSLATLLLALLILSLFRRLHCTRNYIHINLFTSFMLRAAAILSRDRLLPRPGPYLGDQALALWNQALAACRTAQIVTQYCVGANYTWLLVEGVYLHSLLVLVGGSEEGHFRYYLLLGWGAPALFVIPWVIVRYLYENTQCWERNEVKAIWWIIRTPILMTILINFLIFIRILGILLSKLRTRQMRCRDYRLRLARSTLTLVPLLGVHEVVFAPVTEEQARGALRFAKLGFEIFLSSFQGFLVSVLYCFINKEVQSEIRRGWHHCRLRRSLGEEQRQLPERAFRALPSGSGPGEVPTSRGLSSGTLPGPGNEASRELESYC
Put plainly: cell-based or functional assay.

B1: Compound No. 39 (peptide)
peptide: Y[Aib]EGTFTSDYSILLEEQAARK([εLys-εLys-γGlu-C18 diacid])FINWLLAGGPSSGAPPPS-OH
modifications: N-terminus assumed
SMILES: CC[C@H](C)[C@H](NC(=O)[C@H](Cc1ccccc1)NC(=O)[C@H](CCCCNC(=O)[C@@H](N)CCCCNC(=O)[C@@H](N)CCCCNC(=O)CC[C@H](NC(=O)CCCCCCCCCCCCCCCCC(=O)O)C(=O)O)NC(=O)[C@H](CCCNC(=N)N)NC(=O)[C@H](C)NC(=O)[C@H](C)NC(=O)[C@H](CCC(N)=O)NC(=O)[C@H](CCC(=O)O)NC(=O)[C@H](CCC(=O)O)NC(=O)[C@H](CC(C)C)NC(=O)[C@H](CC(C)C)NC(=O)[C@@H](NC(=O)[C@H](CO)NC(=O)[C@H](Cc1ccc(O)cc1)NC(=O)[C@H](CC(=O)O)NC(=O)[C@H](CO)NC(=O)[C@@H](NC(=O)[C@H](Cc1ccccc1)NC(=O)[C@@H](NC(=O)CNC(=O)[C@H](CCC(=O)O)NC(=O)C(C)(C)NC(=O)[C@@H](N)Cc1ccc(O)cc1)[C@@H](C)O)[C@@H](C)O)[C@@H](C)CC)C(=O)N[C@@H](CC(N)=O)C(=O)N[C@@H](Cc1c[nH]c2ccccc12)C(=O)N[C@@H](CC(C)C)C(=O)N[C@@H](CC(C)C)C(=O)N[C@@H](C)C(=O)NCC(=O)NCC(=O)N1CCC[C@H]1C(=O)N[C@@H](CO)C(=O)N[C@@H](CO)C(=O)NCC(=O)N[C@@H](C)C(=O)N1CCC[C@H]1C(=O)N1CCC[C@H]1C(=O)N1CCC[C@H]1C(=O)N[C@@H](CO)C(=O)O
As to B1, in the assay with human GLP-1 receptor, the “hGLP-1R, CRE Luc 0% HSA EC50 (pM)” value stood at 8.2 pM and the “hGLP-1R, CRE Luc 1% HSA EC50 (pM)” value was 135 pM. In the assay with human GIP receptor, the “hGIPR, CRE Luc 0% HSA EC50 (pM)” value came out at 28.4 pM and the “hGIPR, CRE Luc 1% HSA EC50 (pM)” value worked out at 365 pM.

B2: Compound No. 27 (peptide)
peptide: Y[Aib]EGTFTSDYSILLEK([εLys-εLys-γGlu-C18 diacid])QAAREFIEWLLRGGPSSGAPPPS-OH
modifications: N-terminus assumed
SMILES: CC[C@H](C)[C@H](NC(=O)[C@H](Cc1ccccc1)NC(=O)[C@H](CCC(=O)O)NC(=O)[C@H](CCCNC(=N)N)NC(=O)[C@H](C)NC(=O)[C@H](C)NC(=O)[C@H](CCC(N)=O)NC(=O)[C@H](CCCCNC(=O)[C@@H](N)CCCCNC(=O)[C@@H](N)CCCCNC(=O)CC[C@H](NC(=O)CCCCCCCCCCCCCCCCC(=O)O)C(=O)O)NC(=O)[C@H](CCC(=O)O)NC(=O)[C@H](CC(C)C)NC(=O)[C@H](CC(C)C)NC(=O)[C@@H](NC(=O)[C@H](CO)NC(=O)[C@H](Cc1ccc(O)cc1)NC(=O)[C@H](CC(=O)O)NC(=O)[C@H](CO)NC(=O)[C@@H](NC(=O)[C@H](Cc1ccccc1)NC(=O)[C@@H](NC(=O)CNC(=O)[C@H](CCC(=O)O)NC(=O)C(C)(C)NC(=O)[C@@H](N)Cc1ccc(O)cc1)[C@@H](C)O)[C@@H](C)O)[C@@H](C)CC)C(=O)N[C@@H](CCC(=O)O)C(=O)N[C@@H](Cc1c[nH]c2ccccc12)C(=O)N[C@@H](CC(C)C)C(=O)N[C@@H](CC(C)C)C(=O)N[C@@H](CCCNC(=N)N)C(=O)NCC(=O)NCC(=O)N1CCC[C@H]1C(=O)N[C@@H](CO)C(=O)N[C@@H](CO)C(=O)NCC(=O)N[C@@H](C)C(=O)N1CCC[C@H]1C(=O)N1CCC[C@H]1C(=O)N1CCC[C@H]1C(=O)N[C@@H](CO)C(=O)O
B2: in the assay with human GLP-1 receptor, the “hGLP-1R, CRE Luc 0% HSA EC50 (pM)” value amounted to 4.6 pM and the “hGLP-1R, CRE Luc 1% HSA EC50 (pM)” value was found to be 127 pM. In the assay with human GIP receptor, the “hGIPR, CRE Luc 0% HSA EC50 (pM)” value came to 6.3 pM and the “hGIPR, CRE Luc 1% HSA EC50 (pM)” value is 132 pM.

B3: Compound No. 28 (peptide)
peptide: Y[Aib]EGTFTSDYSILLEK([εLys-εLys-γGlu-C18 diacid])QAAREFIEWLLRGGPESGAPPPS-OH
modifications: N-terminus assumed
SMILES: CC[C@H](C)[C@H](NC(=O)[C@H](Cc1ccccc1)NC(=O)[C@H](CCC(=O)O)NC(=O)[C@H](CCCNC(=N)N)NC(=O)[C@H](C)NC(=O)[C@H](C)NC(=O)[C@H](CCC(N)=O)NC(=O)[C@H](CCCCNC(=O)[C@@H](N)CCCCNC(=O)[C@@H](N)CCCCNC(=O)CC[C@H](NC(=O)CCCCCCCCCCCCCCCCC(=O)O)C(=O)O)NC(=O)[C@H](CCC(=O)O)NC(=O)[C@H](CC(C)C)NC(=O)[C@H](CC(C)C)NC(=O)[C@@H](NC(=O)[C@H](CO)NC(=O)[C@H](Cc1ccc(O)cc1)NC(=O)[C@H](CC(=O)O)NC(=O)[C@H](CO)NC(=O)[C@@H](NC(=O)[C@H](Cc1ccccc1)NC(=O)[C@@H](NC(=O)CNC(=O)[C@H](CCC(=O)O)NC(=O)C(C)(C)NC(=O)[C@@H](N)Cc1ccc(O)cc1)[C@@H](C)O)[C@@H](C)O)[C@@H](C)CC)C(=O)N[C@@H](CCC(=O)O)C(=O)N[C@@H](Cc1c[nH]c2ccccc12)C(=O)N[C@@H](CC(C)C)C(=O)N[C@@H](CC(C)C)C(=O)N[C@@H](CCCNC(=N)N)C(=O)NCC(=O)NCC(=O)N1CCC[C@H]1C(=O)N[C@@H](CCC(=O)O)C(=O)N[C@@H](CO)C(=O)NCC(=O)N[C@@H](C)C(=O)N1CCC[C@H]1C(=O)N1CCC[C@H]1C(=O)N1CCC[C@H]1C(=O)N[C@@H](CO)C(=O)O
For B3, in the assay with human GLP-1 receptor, the “hGLP-1R, CRE Luc 0% HSA EC50 (pM)” value turned out to be 6.2 pM and the “hGLP-1R, CRE Luc 1% HSA EC50 (pM)” value was 139 pM. Moreover, in the assay with human GIP receptor, the “hGIPR, CRE Luc 0% HSA EC50 (pM)” value stood at 6.6 pM and the “hGIPR, CRE Luc 1% HSA EC50 (pM)” value came out at 86.5 pM.

B4: Compound No. 26 (peptide)
peptide: Y[Aib]EGTFTSDYSILLEK([εLys-εLys-γGlu-C18 diacid])QAAHEFINWLLAGGPSSGAPPPS-OH
modifications: N-terminus assumed
SMILES: CC[C@H](C)[C@H](NC(=O)[C@H](Cc1ccccc1)NC(=O)[C@H](CCC(=O)O)NC(=O)[C@H](Cc1c[nH]cn1)NC(=O)[C@H](C)NC(=O)[C@H](C)NC(=O)[C@H](CCC(N)=O)NC(=O)[C@H](CCCCNC(=O)[C@@H](N)CCCCNC(=O)[C@@H](N)CCCCNC(=O)CC[C@H](NC(=O)CCCCCCCCCCCCCCCCC(=O)O)C(=O)O)NC(=O)[C@H](CCC(=O)O)NC(=O)[C@H](CC(C)C)NC(=O)[C@H](CC(C)C)NC(=O)[C@@H](NC(=O)[C@H](CO)NC(=O)[C@H](Cc1ccc(O)cc1)NC(=O)[C@H](CC(=O)O)NC(=O)[C@H](CO)NC(=O)[C@@H](NC(=O)[C@H](Cc1ccccc1)NC(=O)[C@@H](NC(=O)CNC(=O)[C@H](CCC(=O)O)NC(=O)C(C)(C)NC(=O)[C@@H](N)Cc1ccc(O)cc1)[C@@H](C)O)[C@@H](C)O)[C@@H](C)CC)C(=O)N[C@@H](CC(N)=O)C(=O)N[C@@H](Cc1c[nH]c2ccccc12)C(=O)N[C@@H](CC(C)C)C(=O)N[C@@H](CC(C)C)C(=O)N[C@@H](C)C(=O)NCC(=O)NCC(=O)N1CCC[C@H]1C(=O)N[C@@H](CO)C(=O)N[C@@H](CO)C(=O)NCC(=O)N[C@@H](C)C(=O)N1CCC[C@H]1C(=O)N1CCC[C@H]1C(=O)N1CCC[C@H]1C(=O)N[C@@H](CO)C(=O)O
B4: in the assay with human GLP-1 receptor, the “hGLP-1R, CRE Luc 0% HSA EC50 (pM)” value turned out to be 7.4 pM and the “hGLP-1R, CRE Luc 1% HSA EC50 (pM)” value worked out at 595 pM. In the assay with human GIP receptor, the “hGIPR, CRE Luc 0% HSA EC50 (pM)” value was found to be 4.9 pM and the “hGIPR, CRE Luc 1% HSA EC50 (pM)” value worked out at 153 pM.

B5: Compound No. 25 (peptide)
peptide: Y[Aib]EGTFTSDYSILLEK([εLys-εLys-γGlu-C18 diacid])QAAEEFINWLLAGGPSSGAPPPS-OH
modifications: N-terminus assumed
SMILES: CC[C@H](C)[C@H](NC(=O)[C@H](Cc1ccccc1)NC(=O)[C@H](CCC(=O)O)NC(=O)[C@H](CCC(=O)O)NC(=O)[C@H](C)NC(=O)[C@H](C)NC(=O)[C@H](CCC(N)=O)NC(=O)[C@H](CCCCNC(=O)[C@@H](N)CCCCNC(=O)[C@@H](N)CCCCNC(=O)CC[C@H](NC(=O)CCCCCCCCCCCCCCCCC(=O)O)C(=O)O)NC(=O)[C@H](CCC(=O)O)NC(=O)[C@H](CC(C)C)NC(=O)[C@H](CC(C)C)NC(=O)[C@@H](NC(=O)[C@H](CO)NC(=O)[C@H](Cc1ccc(O)cc1)NC(=O)[C@H](CC(=O)O)NC(=O)[C@H](CO)NC(=O)[C@@H](NC(=O)[C@H](Cc1ccccc1)NC(=O)[C@@H](NC(=O)CNC(=O)[C@H](CCC(=O)O)NC(=O)C(C)(C)NC(=O)[C@@H](N)Cc1ccc(O)cc1)[C@@H](C)O)[C@@H](C)O)[C@@H](C)CC)C(=O)N[C@@H](CC(N)=O)C(=O)N[C@@H](Cc1c[nH]c2ccccc12)C(=O)N[C@@H](CC(C)C)C(=O)N[C@@H](CC(C)C)C(=O)N[C@@H](C)C(=O)NCC(=O)NCC(=O)N1CCC[C@H]1C(=O)N[C@@H](CO)C(=O)N[C@@H](CO)C(=O)NCC(=O)N[C@@H](C)C(=O)N1CCC[C@H]1C(=O)N1CCC[C@H]1C(=O)N1CCC[C@H]1C(=O)N[C@@H](CO)C(=O)O
Regarding B5, in the assay with human GLP-1 receptor, the “hGLP-1R, CRE Luc 0% HSA EC50 (pM)” value was found to be 15.5 pM and the “hGLP-1R, CRE Luc 1% HSA EC50 (pM)” value is 740 pM. For the same molecule, in the assay with human GIP receptor, the “hGIPR, CRE Luc 0% HSA EC50 (pM)” value worked out at 7.2 pM and the “hGIPR, CRE Luc 1% HSA EC50 (pM)” value was determined as 263 pM.
